B1: CPEB3 Ribozyme (parent)
chain: UAACAGGGGGCCACAGCAGAAGCGUUCACGUCGCAGCCCCUGUCAGAUUCUGGUGAAUCUGCGAAUUCUGCUGUAUAUCUC

Variants of: B1
Test: self-cleavage, relative activity (ratio to wild type); higher = more cleavage; in vitro, sequencing
Summary of the method: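 After error-prone PCR and barcoding, CPEB3 ribozyme mutant libraries were transcribed with T7 RNA polymerase at 37°C for 5 hours, then given 15 min with DNase I before an EDTA stop, and they cleaved during both steps. Reverse transcription with template switching preceded Illumina sequencing. Relative activity divides a variant's cleaved/total read fraction by the unmutated ribozyme's. At least 5 reads were required per variant, and three batches were averaged.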

Going from U72C U78G to U72C U78A, the self-cleavage rises from 1.16 to 1.2.

First: U72C U78C
Second: G70U U72G
The self-cleavage of the first is higher: 1.15 for the first, 0.35 for the second.

Compared with G70U U72C, U72A C79U is higher in self-cleavage: 0.42 for the first, 0.68 for the second.

Compared with A77C U80A, G70A A77G is lower in self-cleavage: 1.05 for the first, 0.53 for the second.

Going from G70A A77U to C71U U72C, the self-cleavage falls from 1.07 to 1.02.

Going from C71U U72G to U72C C81U, the self-cleavage rises from 0.62 to 1.23.

First: U72C C81A
Second: G70C U80C
The self-cleavage of the first is higher: 1.05 for the first, 0.22 for the second.

Going from G73A U80C to G73A U80A, the self-cleavage falls from 1.36 to 1.25.

Compared with U72G U78A, U72G U78C is lower in self-cleavage: 1.13 for the first, 1.01 for the second.

Going from U72G U78G to G70U U74C, the self-cleavage falls from 1 to 0.26.

Compared with U74C C81A, U74C C81U is lower in self-cleavage: 1.26 for the first, 1.23 for the second.

First: U69G A77U
Second: U69G A77G
The self-cleavage of the first is lower: 0.27 for the first, 0.78 for the second.

First: U72A U78C
Second: U72A U78A
The self-cleavage of the first is higher: 0.8 for the first, 0.72 for the second.

First: G73U U80C
Second: U69C U72C
The self-cleavage of the first is higher: 1.28 for the first, 0.37 for the second.

Going from U69C U72G to U69C U72A, the self-cleavage rises from 0.35 to 0.36.

Going from U78C C79U to U78C C79G, the self-cleavage rises from 0.84 to 1.18.

Going from U69C U76C to U69C U76G, the self-cleavage rises from 0.66 to 0.79.

First: U69C U76A
Second: G73A U74A
The self-cleavage of the first is lower: 0.75 for the first, 1.25 for the second.

First: G73U
Second: G73C
The self-cleavage of the first is higher: 1.28 for the first, 1.25 for the second.

Going from G73A to U74C U76A, the self-cleavage rises from 1.27 to 1.3.

Compared with U74C U76C, A75C U80C is lower in self-cleavage: 1.2 for the first, 1.18 for the second.

First: U69C
Second: U69G
The self-cleavage of the first is lower: 0.59 for the first, 0.74 for the second.

Compared with U69A, A75U is higher in self-cleavage: 0.63 for the first, 1.15 for the second.

Compared with A75C, A75G is lower in self-cleavage: 1.2 for the first, 1.01 for the second.

Going from U74C A77G to U74C A77U, the self-cleavage falls from 1.32 to 1.26.

Compared with C68U U69G, A75G U80C is higher in self-cleavage: 0.39 for the first, 0.65 for the second.

Going from A75G U80A to A75G U80G, the self-cleavage falls from 1.08 to 1.02.

Compared with G70A, G70U is lower in self-cleavage: 0.55 for the first, 0.37 for the second.

Compared with G70C, U78C C81A is higher in self-cleavage: 0.31 for the first, 1.21 for the second.

Compared with U78C C81U, U78C C81G is higher in self-cleavage: 1.15 for the first, 1.25 for the second.

Compared with C71U U80C, C71U U80A is lower in self-cleavage: 1.23 for the first, 0.72 for the second.

Going from G70C U72C to U69C A77U, the self-cleavage rises from 0.31 to 0.77.

First: U69C A77C
Second: U69C A77G
The self-cleavage of the first is lower: 0.54 for the first, 0.67 for the second.

First: U72A A77U
Second: U72A A77G
The self-cleavage of the first is lower: 0.89 for the first, 1.02 for the second.

Compared with U74C C79A, U74C C79G is higher in self-cleavage: 1.31 for the first, 1.45 for the second.

First: G73U U76C
Second: G70C U78A
The self-cleavage of the first is higher: 1.21 for the first, 0.17 for the second.

First: U69G U80C
Second: U69G U80A
The self-cleavage of the first is lower: 0.82 for the first, 0.88 for the second.

Compared with U69G U80G, U76C U78C is higher in self-cleavage: 0.61 for the first, 1.01 for the second.

First: U76C U78A
Second: U76C C81A
The self-cleavage of the first is lower: 1.19 for the first, 1.24 for the second.

U76A A77U and U76A A77G are the same in self-cleavage: 1.01 for the first, 1.01 for the second.

Compared with U76G A77U, C71U U78A is lower in self-cleavage: 0.75 for the first, 0.65 for the second.

Going from C71U U78C to U76C C79G, the self-cleavage rises from 0.77 to 1.22.

First: A75G C79U
Second: A75G U78A
The self-cleavage of the first is lower: 1.18 for the first, 1.3 for the second.

Going from A75G U78C to A75G U78G, the self-cleavage falls from 0.67 to 0.62.

Going from U69G C81A to U69C C71G, the self-cleavage falls from 0.86 to 0.24.

Going from U69C C71A to C68U U78C, the self-cleavage rises from 0.2 to 1.03.

Going from C68U U78A to U72C A75U, the self-cleavage rises from 1.01 to 1.25.

Compared with U72C A75G, U76C U80G is higher in self-cleavage: 1.14 for the first, 1.24 for the second.

First: U76C U80A
Second: U76C U80C
The self-cleavage of the first is higher: 1.26 for the first, 1.13 for the second.

Going from U72C C79G to U72C C79A, the self-cleavage rises from 1.05 to 1.3.

Compared with U72C C79U, C71G U78C is lower in self-cleavage: 1.16 for the first, 0.36 for the second.

Going from U76A U80C to U76A U80A, the self-cleavage falls from 1.23 to 1.17.

First: U69C U80G
Second: U69C U80C
The self-cleavage of the first is higher: 0.73 for the first, 0.52 for the second.

Compared with U69C U80A, C71G U72C is lower in self-cleavage: 0.79 for the first, 0.44 for the second.

First: C68U U72G
Second: C68U U72A
The self-cleavage of the first is higher: 0.95 for the first, 0.35 for the second.

First: C68U U72C
Second: C71A A77U
The self-cleavage of the first is higher: 0.93 for the first, 0.36 for the second.

Compared with G73C U78G, A77U C79A is higher in self-cleavage: 1.23 for the first, 1.26 for the second.

Compared with A75U U76C, C71A is lower in self-cleavage: 1.29 for the first, 0.33 for the second.

Compared with C71G, C71U is higher in self-cleavage: 0.42 for the first, 0.68 for the second.

Compared with C71U U76C, U69A U74C is higher in self-cleavage: 0.84 for the first, 0.96 for the second.

Going from U69A U74A to G70A U76A, the self-cleavage rises from 0.55 to 0.8.

G70A U76C and U69A U78C are the same in self-cleavage: 0.75 for the first, 0.75 for the second.

First: U69A U78G
Second: U69A U78A
The self-cleavage of the first is lower: 0.39 for the first, 0.92 for the second.

First: U69G U76A
Second: U69G U76C
The self-cleavage of the first is lower: 0.94 for the first, 0.98 for the second.

First: G70C C71U
Second: G70C U76A
The self-cleavage of the first is higher: 0.3 for the first, 0.11 for the second.

Compared with A77G U78C, A77G U78G is higher in self-cleavage: 0.82 for the first, 0.9 for the second.

Compared with A77G U78A, C71A U80C is lower in self-cleavage: 1.17 for the first, 0.63 for the second.

First: C71A U80A
Second: G70A C71U
The self-cleavage of the first is lower: 0.37 for the first, 0.41 for the second.

First: G70A C71G
Second: G73C U80C
The self-cleavage of the first is lower: 0.23 for the first, 1.29 for the second.

Going from A75G C81U to A75G C81A, the self-cleavage falls from 1.18 to 1.04.

Going from C71A U72A to C71A U72C, the self-cleavage rises from 0.22 to 0.41.

Going from C71G A75G to C68U U74C, the self-cleavage rises from 0.62 to 1.19.

Going from U69A C71G to U69A C71U, the self-cleavage rises from 0.22 to 0.33.

Compared with U72A C81A, U72A C81G is lower in self-cleavage: 1.26 for the first, 1.24 for the second.

First: U72A C81U
Second: U76C A77U
The self-cleavage of the first is higher: 1.11 for the first, 1.07 for the second.

Going from U76C A77G to A77G U80A, the self-cleavage rises from 1.07 to 1.18.

Going from A77G U80C to A77G U80G, the self-cleavage rises from 1.12 to 1.21.

Going from U72C A77G to U72C A77U, the self-cleavage rises from 1.18 to 1.21.

Going from U72C A77C to U74C U80C, the self-cleavage rises from 1.07 to 1.24.

First: U74C U80A
Second: U74G A75G
The self-cleavage of the first is higher: 1.28 for the first, 1.26 for the second.

Going from U74G A75U to U76A U78C, the self-cleavage falls from 1.29 to 1.1.

Compared with U76A U78A, U76A U78G is higher in self-cleavage: 1.09 for the first, 1.37 for the second.

Compared with U72C U76C, U72C U76G is higher in self-cleavage: 1.16 for the first, 1.23 for the second.

Work on U72C U76A yielded a self-cleavage of 1.23.

Reference: the RNAGym collection of RNA variant scans (doi:10.1093/nar/gkz1192)
